# From IntAct's records for PubMed 31515488
# B1: Notch homolog 2 N-terminal-like protein A (Homo sapiens), Q7Z3S9 (parent)
# chain: MCVTYHNGTGYCKCPEGFLGEYCQHRDPCEKNRCQNGGTCVAQAMLGKATCRCASGFTGEDCQYSTSHPCFVSRPCLNGGTCHMLSRDTYECTCQVGFTGKECQWTDACLSHPCANGSTCTTVANQFSCKCLTGFTGQKCETDVNECDIPGHCQHGGTCLNLPGSYQCQCLQGFTGQYCDSLYVPCAPSPCVNGGTCRQTGDFTFECNCLPETVRRGTELWERDREVWNGKEHDEN
# partner: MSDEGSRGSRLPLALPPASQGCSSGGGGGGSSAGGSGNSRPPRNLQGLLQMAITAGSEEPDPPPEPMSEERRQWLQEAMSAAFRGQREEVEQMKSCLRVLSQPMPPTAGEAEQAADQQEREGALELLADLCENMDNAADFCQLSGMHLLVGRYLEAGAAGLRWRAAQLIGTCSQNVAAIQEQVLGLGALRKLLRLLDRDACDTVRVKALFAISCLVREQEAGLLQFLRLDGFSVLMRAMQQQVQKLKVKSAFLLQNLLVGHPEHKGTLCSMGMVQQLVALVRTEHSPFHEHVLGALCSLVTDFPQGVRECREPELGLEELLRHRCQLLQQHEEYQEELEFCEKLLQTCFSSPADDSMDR
# B2: Neutrophil cytosol factor 2 (Homo sapiens), P19878 (parent)
# chain: MSLVEAISLWNEGVLAADKKDWKGALDAFSAVQDPHSRICFNIGCMYTILKNMTEAEKAFTRSINRDKHLAVAYFQRGMLYYQTEKYDLAIKDLKEALIQLRGNQLIDYKILGLQFKLFACEVLYNIAFMYAKKEEWKKAEEQLALATSMKSEPRHSKIDKAMECVWKQKLYEPVVIPVGKLFRPNERQVAQLAKKDYLGKATVVASVVDQDSFSGFAPLQPQAAEPPPRPKTPEIFRALEGEAHRVLFGFVPETKEELQVMPGNIVFVLKKGNDNWATVMFNGQKGLVPCNYLEPVELRIHPQQQPQEESSPQSDIPAPPSSKAPGRPQLSPGQKQKEEPKEVKLSVPMPYTLKVHYKYTVVMKTQPGLPYSQVRDMVSKKLELRLEHTKLSYRPRDSNELVPLSEDSMKDAWGQVKNYCLTLWCENTVGDQGFPDEPKESEKADANNQTTEPQLKKGSQVEALFSYEATQPEDLEFQEGDIILVLSKVNEEWLEGECKGKVGIFPKVFVEDCATTDLESTRREV
# B3: Transcription factor 12 (Homo sapiens), Q99081 (parent)
# chain: MNPQQQRMAAIGTDKELSDLLDFSAMFSPPVNSGKTRPTTLGSSQFSGSGIDERGGTTSWGTSGQPSPSYDSSRGFTDSPHYSDHLNDSRLGAHEGLSPTPFMNSNLMGKTSERGSFSLYSRDTGLPGCQSSLLRQDLGLGSPAQLSSSGKPGTAYYSFSATSSRRRPLHDSAALDPLQAKKVRKVPPGLPSSVYAPSPNSDDFNRESPSYPSPKPPTSMFASTFFMQDGTHNSSDLWSSSNGMSQPGFGGILGTSTSHMSQSSSYGNLHSHDRLSYPPHSVSPTDINTSLPPMSSFHRGSTSSSPYVAASHTPPINGSDSILGTRGNAAGSSQTGDALGKALASIYSPDHTSSSFPSNPSTPVGSPSPLTGTSQWPRPGGQAPSSPSYENSLHSLQSRMEDRLDRLDDAIHVLRNHAVGPSTSLPAGHSDIHSLLGPSHNAPIGSLNSNYGGSSLVASSRSASMVGTHREDSVSLNGNHSVLSSTVTTSSTDLNHKTQENYRGGLQSQSGTVVTTEIKTENKEKDENLHEPPSSDDMKSDDESSQKDIKVSSRGRTSSTNEDEDLNPEQKIEREKERRMANNARERLRVRDINEAFKELGRMCQLHLKSEKPQTKLLILHQAVAVILSLEQQVRERNLNPKAACLKRREEEKVSAVSAEPPTTLPGTHPGLSETTNPMGHM
# partner: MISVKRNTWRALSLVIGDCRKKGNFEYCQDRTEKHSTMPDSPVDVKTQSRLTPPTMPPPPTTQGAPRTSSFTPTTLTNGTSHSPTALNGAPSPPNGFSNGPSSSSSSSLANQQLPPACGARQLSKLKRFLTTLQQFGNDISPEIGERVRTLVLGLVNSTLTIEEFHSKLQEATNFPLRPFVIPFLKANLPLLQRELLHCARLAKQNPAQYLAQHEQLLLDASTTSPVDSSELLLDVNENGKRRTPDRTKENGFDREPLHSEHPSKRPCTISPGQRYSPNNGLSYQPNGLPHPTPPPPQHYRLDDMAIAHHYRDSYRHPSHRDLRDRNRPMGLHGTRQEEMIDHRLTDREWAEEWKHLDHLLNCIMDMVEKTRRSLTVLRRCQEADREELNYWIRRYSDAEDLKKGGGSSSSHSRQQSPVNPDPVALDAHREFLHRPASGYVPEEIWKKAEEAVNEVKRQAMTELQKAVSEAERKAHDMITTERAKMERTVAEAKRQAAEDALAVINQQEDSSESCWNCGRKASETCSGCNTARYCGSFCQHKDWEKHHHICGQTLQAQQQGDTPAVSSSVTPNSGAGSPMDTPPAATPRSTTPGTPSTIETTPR
# B4: Syntenin-1 (Homo sapiens), O00560 (parent)
# chain: MSLYPSLEDLKVDKVIQAQTAFSANPANPAILSEASAPIPHDGNLYPRLYPELSQYMGLSLNEEEIRANVAVVSGAPLQGQLVARPSSINYMVAPVTGNDVGIRRAEIKQGIREVILCKDQDGKIGLRLKSIDNGIFVQLVQANSPASLVGLRFGDQVLQINGENCAGWSSDKAHKVLKQAFGEKITMTIRDRPFERTITMHKDSTGHVGFIFKNGKITSIVKDSSAARNGLLTEHNICEINGQNVIGLKDSQIADILSTSGTVVTITIMPAFIFEHIIKRMAPSIMKSLMDHTIPEV
# partner: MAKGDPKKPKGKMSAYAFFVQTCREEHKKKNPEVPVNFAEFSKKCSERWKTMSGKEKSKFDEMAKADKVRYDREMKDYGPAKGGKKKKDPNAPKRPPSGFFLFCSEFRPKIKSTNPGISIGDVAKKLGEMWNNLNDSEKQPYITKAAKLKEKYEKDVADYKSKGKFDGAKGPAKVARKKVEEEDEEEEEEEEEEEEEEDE
# Variants of: B1
# Conditions: with hpbp1_human HSPBP1, Q9NZL4
row,Variant,effect of a mutation on the interaction
1,R74Q,with no effect

# Variants of: B2
# Conditions: with kifa3_human KIFAP3, Q92845
# Chain of kifa3_human KIFAP3, Q92845 (Q92845 whole entry): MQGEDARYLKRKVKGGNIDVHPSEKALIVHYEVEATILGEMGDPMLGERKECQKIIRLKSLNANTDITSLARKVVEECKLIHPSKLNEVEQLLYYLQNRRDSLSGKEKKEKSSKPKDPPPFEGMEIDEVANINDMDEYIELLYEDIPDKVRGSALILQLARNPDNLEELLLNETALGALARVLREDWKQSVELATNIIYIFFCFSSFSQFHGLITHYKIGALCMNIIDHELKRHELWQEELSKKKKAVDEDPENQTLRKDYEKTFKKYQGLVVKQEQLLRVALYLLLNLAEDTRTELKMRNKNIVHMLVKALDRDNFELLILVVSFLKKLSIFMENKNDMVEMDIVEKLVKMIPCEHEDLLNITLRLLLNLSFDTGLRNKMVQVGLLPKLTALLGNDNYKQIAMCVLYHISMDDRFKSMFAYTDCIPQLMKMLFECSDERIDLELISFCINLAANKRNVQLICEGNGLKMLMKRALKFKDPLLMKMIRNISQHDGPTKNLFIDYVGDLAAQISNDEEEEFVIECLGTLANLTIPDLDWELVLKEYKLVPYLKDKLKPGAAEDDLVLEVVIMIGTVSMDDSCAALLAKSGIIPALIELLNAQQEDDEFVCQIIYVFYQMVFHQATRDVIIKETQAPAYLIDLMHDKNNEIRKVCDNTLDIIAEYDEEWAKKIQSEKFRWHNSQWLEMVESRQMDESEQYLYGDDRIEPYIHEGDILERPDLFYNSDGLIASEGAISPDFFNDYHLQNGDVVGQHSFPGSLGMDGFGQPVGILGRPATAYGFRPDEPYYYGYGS
row,Variant,effect of a mutation on the interaction
1,V297A,with no effect

# Variants of: B3
# Conditions: with mtg8_human RUNX1T1, Q06455
row,Variant,effect of a mutation on the interaction
1,G300S,with no effect
2,I11M,with no effect
3,N479S,with no effect
4,L483R,with no effect
5,D565V,with no effect
6,A458V,with no effect
7,G64R,with no effect
8,V31A,with no effect
9,A174V,with no effect

# Variants of: B4
# Conditions: with hmgb3_human HMGB3, O15347
row,Variant,effect of a mutation on the interaction
1,K124R,with no effect
